Legend:
[1] = target: T1, bS21 (Halalkalibacterium halodurans C-125?) (UniProt Q9KD65); experiment: filter binding; details: Filter binding: 20 mM Tris-HCl pH 7.5, 150 mM NaCl, 10 mM MgCl2, 1 mM TCEP, 5% glycerol, 0.001% SDS, ~2.5 nM RNA, 20°C, 15 min; in-line probing buffer not in …
T1 sequence: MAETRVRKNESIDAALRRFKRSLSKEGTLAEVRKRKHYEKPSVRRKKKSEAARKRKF

[2] = target: T1, bS21 (Halalkalibacterium halodurans C-125?); experiment: footprinting (in-line probing); details: Filter binding: 20 mM Tris-HCl pH 7.5, 150 mM NaCl, 10 mM MgCl2, 1 mM TCEP, 5% glycerol, 0.001% SDS, ~2.5 nM RNA, 20°C, 15 min; in-line probing buffer not in …

Row | Sequence | binding [1] | binding [2]
1 | GGAUCGAUGAAGCUCCUUGUGAUGGCUUGAGGCGCCCAGCCUUGGGUCAUUGCUGGGAGAAAAGGUAGUAGGGCGAUCCACAAAGGCAUGUGGGCGAUGACCCUCCUACUG [OLE83-191 WT] | binds | binds
2 | GGCAUUUAAAGAGGAUUACAGUGUGGACUAAGUGGUAAUCCAGUCUGGCGUUUGGUGACAGCGCCAAGUUCAACAUAAAGGGAAACCGCCAGCGCGGCGACGCACUGGUGUUGAAUUGGGAAAUCCUACUGGACCUAAGCCACAGAGUUUACUCUUUAAAUG [OLE449-608] | binds more weakly | –
3 | GGGGCACAUCGAUGAAGCUCCUUGUGAUGGCUUGAGGCGCCCAGCCUUGGGUCAUUGCUGGGAGAAAAGGUAGUAGGGCGAUCCACAAAGGCAUGUGGGCGAUGACCCUCCUACUGUGGAGGCCUUUUUCUCUGCUGCUUAUGUAUGGACAUAGGGCAAGAGCAAAGGGUAUGAACCUGCGAAGGCAAGCUAGGGAGCUUGUCAGCAGCGUAGCC [OLE78-290] | binds | binds
